Drawing on patent US20180161428A1 (HARPOON THERAPEUTICS, published 2018), this text covers Kd, koff and kon for ten molecules.

The Kd is the constant that tells how readily two partners part at equilibrium. Broadly, the koff is the first-order rate constant of dissociation. One may read the kon as a measure of how fast the partners come together. Low readings indicate slow association, high ones fast association.

One assay addresses T1, hFc · flag · hPSMA (human, UniProt Q04609 44-750).
T1 construct: The order of the parts follows the printed label; also called human PSMA; h PSMA-Fc; not shown: human Fc (hFc); flag tag
Briefly: BLI (OCTET), expression supernatants, hFc.flag.hPSMA. From the text: Supernatants were used to estimate Kd, kon, and koff (or kdis) to human and cynomolgus PSMA using the OCTET® system. […] The parental sdAb is listed as Anti-PSMA wt sdAb.6his in Table 1.

The target of assay [1] is T2, Tool TriTAC high aff. - C236.
T2 construct: Trispecific single chain: anti-PSMA sdAb, anti-HSA sdAb, anti-CD3 scFv, 6xHis (the tag is part of the entry); also called Tool PSMA TriTAC; C00236
Briefly: BLI (Octet), cynomolgus albumin (CSA). (BLI is a label-free optical method that tracks binding on a fibre tip over time.)

Assay [2] deals with T3, TriTAC CD3 high aff. - C324.
T3 construct: Trispecific single chain: anti-PSMA sdAb, anti-HSA sdAb, anti-CD3 scFv, 6xHis (the tag is part of the entry); also called PSMA TriTAC CD3 high aff; C00324
Briefly: BLI (Octet), cynomolgus albumin (CSA).

The target of assay [3] is T4, PSMA-TriTAC (p8)-C362.
T4 construct: Trispecific single chain: anti-PSMA sdAb, anti-HSA sdAb, anti-CD3 scFv, 6xHis (the tag is part of the entry); also called PSMA p8 TriTAC C362; C00362
Put plainly: BLI (Octet), cynomolgus albumin (CSA).

For assay [4], the target named is T5, PSMA TriTAC (HDS)-C363.
T5 construct: Trispecific single chain: anti-PSMA sdAb, anti-HSA sdAb, anti-CD3 scFv, 6xHis (the tag is part of the entry); also called PSMA HDS TriTAC C363; C00363
Briefly: BLI (Octet), cynomolgus albumin (CSA).

Assay [5] concerns the target T6, PSMA TriTAC (HTS)-C364.
T6 construct: Trispecific single chain: anti-PSMA sdAb, anti-HSA sdAb, anti-CD3 scFv, 6xHis (the tag is part of the entry); also called PSMA HTS TriTAC C364; C00364
Briefly: BLI (Octet), cynomolgus albumin (CSA).

The target in assay [6] is T2, Tool TriTAC high aff. - C236. Put plainly: BLI (Octet), cynomolgus CD3.
Assay [7] addresses T3, TriTAC CD3 high aff. - C324. Briefly: BLI (Octet), cynomolgus CD3.
Assay [8] deals with T4, PSMA-TriTAC (p8)-C362. Put plainly: BLI (Octet), cynomolgus CD3.
Assay [9] deals with T5, PSMA TriTAC (HDS)-C363. Briefly: BLI (Octet), cynomolgus CD3.
The target in assay [10] is T6, PSMA TriTAC (HTS)-C364. Briefly: BLI (Octet), cynomolgus CD3.
Assay [11] deals with T3, TriTAC CD3 high aff. - C324. Put plainly: BLI (Octet), human CD3-Flag-Fc on anti-human IgG Fc biosensors.
The target of assay [12] is T4, PSMA-TriTAC (p8)-C362. Described as above.
For assay [13], the target named is T5, PSMA TriTAC (HDS)-C363. Described as above.
Assay [14] has as its target T6, PSMA TriTAC (HTS)-C364. Described as above.
Assay [15] has as its target T5, PSMA TriTAC (HDS)-C363. Briefly: BLI (Octet), cynomolgus PSMA.
Assay [16] addresses T6, PSMA TriTAC (HTS)-C364. Briefly: BLI (Octet), cynomolgus PSMA.

Substitutions are numbered along the chain they refer to. Numbers in names are those of the source.

T4 sequence (chain, as listed by the source): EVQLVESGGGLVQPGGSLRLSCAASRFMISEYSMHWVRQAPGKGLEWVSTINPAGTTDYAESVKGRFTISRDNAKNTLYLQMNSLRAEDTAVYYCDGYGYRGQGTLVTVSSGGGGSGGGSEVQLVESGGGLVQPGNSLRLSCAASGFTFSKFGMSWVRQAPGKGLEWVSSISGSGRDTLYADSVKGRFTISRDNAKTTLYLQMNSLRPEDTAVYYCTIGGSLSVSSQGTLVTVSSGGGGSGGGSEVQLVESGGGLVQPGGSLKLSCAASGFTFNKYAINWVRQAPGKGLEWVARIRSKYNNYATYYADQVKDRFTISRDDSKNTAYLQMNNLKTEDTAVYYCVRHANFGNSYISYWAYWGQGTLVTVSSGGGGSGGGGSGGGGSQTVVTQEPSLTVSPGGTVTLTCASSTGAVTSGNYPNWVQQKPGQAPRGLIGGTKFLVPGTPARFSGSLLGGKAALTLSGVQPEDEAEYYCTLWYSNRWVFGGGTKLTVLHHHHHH
T1 sequence (Q04609 44-750 limits assumed): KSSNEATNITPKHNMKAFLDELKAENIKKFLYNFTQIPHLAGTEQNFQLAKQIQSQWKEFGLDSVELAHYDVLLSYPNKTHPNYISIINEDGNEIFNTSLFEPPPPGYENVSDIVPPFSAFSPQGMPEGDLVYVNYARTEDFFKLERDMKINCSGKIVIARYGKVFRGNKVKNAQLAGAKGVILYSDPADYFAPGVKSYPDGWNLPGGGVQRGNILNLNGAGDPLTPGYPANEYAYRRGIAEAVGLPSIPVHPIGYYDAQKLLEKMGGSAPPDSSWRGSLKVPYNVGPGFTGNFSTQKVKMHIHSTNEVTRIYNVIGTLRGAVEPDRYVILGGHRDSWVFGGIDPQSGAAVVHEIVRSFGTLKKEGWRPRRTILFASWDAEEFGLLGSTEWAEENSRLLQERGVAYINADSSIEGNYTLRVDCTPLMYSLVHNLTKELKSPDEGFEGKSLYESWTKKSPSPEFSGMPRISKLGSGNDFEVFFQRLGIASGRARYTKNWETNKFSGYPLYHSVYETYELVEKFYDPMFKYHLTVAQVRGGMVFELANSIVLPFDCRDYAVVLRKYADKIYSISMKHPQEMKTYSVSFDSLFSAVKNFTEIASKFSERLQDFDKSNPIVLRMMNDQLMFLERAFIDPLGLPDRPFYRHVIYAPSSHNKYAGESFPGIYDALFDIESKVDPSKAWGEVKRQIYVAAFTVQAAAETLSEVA

B1: Anti-PSMA wt sdAb.6his (VHH)
VHH: EVQLVESGGGLVQPGGSLTLSCAASRFMISEYSMHWVRQAPGKGLEWVSTINPAGTTDYAESVKGRFTISRDNAKNTLYLQMNSLKPEDTAVYYCDGYGYRGQGTQVTVSS
notes: Tested as supernatant of Expi293 cells; also called parental sdAb; parental anti-PSMA single domain antibody
In the case of B1, in the assay with hFc · flag · hPSMA, the Kd is 15 nM, the koff is 0.0132 s⁻¹ and the kon came to 877000 M⁻¹ s⁻¹.

B2: anti-PSMA E31P sdAb.6his (VHH)
VHH: B1 VHH with E31P
Turning to B2, in the assay with hFc · flag · hPSMA, the Kd amounted to 9.5 nM, the koff was determined as 0.00366 s⁻¹ and the on-rate constant (kon) is 383000 M⁻¹ s⁻¹.

B3: anti-PSMA S33H T50D G97SsdAb.6his (VHH)
VHH: B1 VHH with S33H, T50D, G97S
In the assay with hFc · flag · hPSMA, B3 returned a Kd of 6.7 nM, an off-rate constant (koff) of 0.00538 s⁻¹ and an on-rate constant (kon) of 800000 M⁻¹ s⁻¹.

B4: anti-PSMA T56Q sdAb.6his (VHH)
VHH: B1 VHH with T56Q
Consider B4, for which, in the assay with hFc · flag · hPSMA, the Kd was determined as 5.6 nM, the koff is 0.00461 s⁻¹ and the kon came to 822000 M⁻¹ s⁻¹.

B5: anti-PSMA G55K sdAb.6his (VHH)
VHH: B1 VHH with G55K
In the case of B5, in the assay with hFc · flag · hPSMA, binding was characterised by a dissociation constant (Kd) of 4.5 nM, the koff turned out to be 0.00248 s⁻¹ and the kon amounted to 556000 M⁻¹ s⁻¹.

B6: anti-PSMA S33H G97SsdAb.6his (VHH)
VHH: B1 VHH with S33H, G97S
In the assay with hFc · flag · hPSMA, B6 came in with a Kd of 0.21 nM, a koff of 0.000197 s⁻¹ and a kon of 936000 M⁻¹ s⁻¹.

B7: CSA (other, cynomolgus, UniProt A2V9Z4 25-608, looked up)
chain: DTHKSEVAHRFKDLGEEHFKGLVLVAFSQYLQQCPFEEHVKLVNEVTEFAKTCVADESAENCDKSLHTLFGDKLCTVATLRETYGEMADCCAKQEPERNECFLQHKDDNPNLPPLVRPEVDVMCTAFHDNEATFLKKYLYEVARRHPYFYAPELLFFAARYKAAFAECCQAADKAACLLPKLDELRDEGKASSAKQRLKCASLQKFGDRAFKAWAVARLSQKFPKAEFAEVSKLVTDLTKVHTECCHGDLLECADDRADLAKYMCENQDSISSKLKECCDKPLLEKSHCLAEVENDEMPADLPSLAADYVESKDVCKNYAEAKDVFLGMFLYEYARRHPDYSVMLLLRLAKAYEATLEKCCAAADPHECYAKVFDEFQPLVEEPQNLVKQNCELFEQLGEYKFQNALLVRYTKKVPQVSTPTLVEVSRNLGKVGAKCCKLPEAKRMPCAEDYLSVVLNRLCVLHEKTPVSEKVTKCCTESLVNRRPCFSALELDEAYVPKAFNAETFTFHADMCTLSEKEKQVKKQTALVELVKHKPKATKEQLKGVMDNFAAFVEKCCKADDKEACFAEEGPKFVAASQAALA
notes: also called cynomolgus serum albumin
Turning to B7, the Kd in assay [1] turned out to be 25.4 nM; in assay [2], 9.7 nM; with PSMA-TriTAC (p8)-C362 [3], 6.6 nM; in the assay with PSMA TriTAC (HDS)-C363 [4], 8.4 nM; with PSMA TriTAC (HTS)-C364 [5] it was 8.6 nM.

B8: cynomolgus CD3 (receptor, UniProt Q95LI5 22-117, looked up)
chain: QDGNEEMGSITQTPYQVSISGTTVILTCSQHLGSEAQWQHNGKNKEDSGDRLFLPEFSEMEQSGYYVCYPRGSNPEDASHHLYLKARVCENCMEMD
notes: The methods describe only the human CD3-Flag-Fc format; also called cyno CD3e
On to B8, for which the Kd in assay [6] was determined as 4.7 nM; in [7], 5.8 nM; in the assay with PSMA-TriTAC (p8)-C362 [8], 4.3 nM; in the assay with PSMA TriTAC (HDS)-C363 [9] it was 5.2 nM; with PSMA TriTAC (HTS)-C364 [10] it was 3.8 nM.

B9: human CD3-Flag-Fc protein (Fc fusion, UniProt P07766 23-126, looked up)
chain: DGNEEMGGITQTPYKVSISGTTVILTCPQYPGSEILWQHNDKNIGGDEDDKNIGSDEDHLSLKEFSELEQSGYYVCYPRGSKPEDANFYLYLRARVCENCMEMD
notes: also called CD3e; not shown: Flag tag
For B9, the Kd in assay [11] was found to be 7.4 nM; in the assay with PSMA-TriTAC (p8)-C362 [12] it was 8.3 nM; with PSMA TriTAC (HDS)-C363 [13] it was 8 nM; in the assay with PSMA TriTAC (HTS)-C364 [14] it was 7.7 nM.

B10: cynomolgus PSMA (other)
chain: KSSSEATNITPKHNMKAFLDELKAENIKKFLHNFTQIPHLAGTEQNFQLAKQIQSQWKEFGLDSVELTHYDVLLSYPNKTHPNYISIINEDGNEIFNTSLFEPPPAGYENVSDIVPPFSAFSPQGMPEGDLVYVNYARTEDFFKLERDMKINCSGKIVIARYGKVFRGNKVKNAQLAGATGVILYSDPADYFAPGVKSYPDGWNLPGGGVQRGNILNLNGAGDPLTPGYPANEYAYRRGIAEAVGLPSIPVHPIGYYDAQKLLEKMGGSASPDSSWRGSLKVPYNVGPGFTGNFSTQKVKMHIHSTSEVTRIYNVIGTLRGAVEPDRYVILGGHRDSWVFGGIDPQSGAAVVHEIVRSFGTLKKEGWRPRRTILFASWDAEEFGLLGSTEWAEENSRLLQERGVAYINADSSIEGNYTLRVDCTPLMYSLVYNLTKELESPDEGFEGKSLYESWTKKSPSPEFSGMPRISKLGSGNDFEVFFQRLGIASGRARYTKNWETNKFSSYPLYHSVYETYELVEKFYDPMFKYHLTVAQVRGGMVFELANSVVLPFDCRDYAVVLRKYADKIYNISMKHPQEMKTYSVSFDSLFSAVKNFTEIASKFSERLRDFDKSNPILLRMMNDQLMFLERAFIDPLGLPDRPFYRHVIYAPSSHNKYAGESFPGIYDALFDIESKVDPSQAWGEVKRQISIATFTVQAAAETLSEVA
notes: the methods describe only the human PSMA-Fc format; also called cyno PSMA
Take B10: the figures for the Kd with PSMA TriTAC (HDS)-C363 [15] and with PSMA TriTAC (HTS)-C364 [16] were 540 nM and 663 nM, respectively.
